According to US20120316071A1 (published 2012):
Numbering of substitutions follows the chain as printed. Names and notes keep the numbering of the source.

How the values were obtained:
[1] = biological target: T1, Recombinant Human DLL4 (delta-like protein 4) (human, UniProt Q9NR61 27-524); assay: ELISA, DLL4 coated on plate, 100 nM Fab
T1 construct: Bought recombinant human DLL4 (R&D Systems Cat#1506-D4/CF) coated on the ELISA plate; also called rHuman DLL4; Delta-like ligand 4

[2] = biological target: T2, Recombinant Human DLL4 (delta-like protein 4) (human, UniProt Q9NR61 27-524); assay: ELISA, DLL4 coated on plate, Fab at 25 nM (2-fold dilution series), absorbance at 450 nm
T2 construct: Bought recombinant human DLL4 coated on the ELISA plate; also called rHuman DLL4

[3] = biological target: T2, Recombinant Human DLL4 (delta-like …); assay: ELISA, DLL4 coated on plate, Fab at 50 nM (2-fold dilution series), absorbance at 450 nm
[4] = biological target: T2, Recombinant Human DLL4 (delta-like …); assay: ELISA, DLL4 coated on plate, Fab at 100 nM (2-fold dilution series), absorbance at 450 nm
[5] = biological target: T2, Recombinant Human DLL4 (delta-like …); assay: ELISA, DLL4 coated on plate, Fab at 12.5 nM (2-fold dilution series), absorbance at 450 nm
[6] = biological target: T3, Recombinant Human DLL4 (R&D Systems Cat#1506-D4/CF) (human, UniProt Q9NR61 27-524); assay: ECL (MSD) multispot binding assay, DLL4 spotted on plate, Fab in solution
T3 construct: Bought recombinant protein; also called delta-like protein 4; rHuman DLL4

B1: Fab VH5-51_IGHD5-18*01>3_IGHJ4*01 G100K/G104T G24T/S28R/G35V (H:KT TRV) & V3-4_IGLJ1*01 V91L/S96P T53R (Fab, V domains shown)
VH: EVQLVQSGAEVKKPGESLKISCKTSGYRFTSYWIVWVRQMPGKGLEWMGIIYPGDSDTRYSPSFQGQVTISADKSISTAYLQWSSLKASDTAMYYCARRKYSYTYDYFDYWGQGTLVTVSS
VL: QTVVTQEPSFSVSPGGTVTLTCGLSSGSVSTSYYPSWYQQTPGQAPRTLIYSRNTRSSGVPDRFSGSILGNKAALTITGAQADDESDYYCLLYMGPGISYVFGTGTKVTVL
notes: Fab made in E. coli: VH in plasmid A (CH1, His6 and Flag tags), VL in plasmid E (lambda CL); also called H:KT TRV & L:LP T53R
ELISA Signal-blank (100 nM Fab) [1]: 0.05

B2: Fab VH5-51_IGHD5-18*01>3_IGHJ4*01 G100K/G104T G24T/S28R/G35V (KT TRV) & V3-4_IGLJ1*01 (wildtype) (Fab, V domains shown)
VH: B1 VH
VL: B1 VL with R53T, L91V, P96S
notes: Fab; Expressed in E. coli with CH1 (plasmid A, His6 and Flag tags) and lambda CL (plasmid E); also called H:KT TRV & L:wt
ELISA signal [2]: 0.26
ELISA signal [3]: 0.32
ELISA signal [4]: 0.45
ELISA signal [5]: 0.23

B3: Fab VH5-51_IGHD5-18*01>3_IGHJ4*01 G100K/G104T G24L/S28R/G35V (KT LRV) & V3-4_IGLJ1*01 V91L/S96P S52M (Fab, V domains shown)
VH: B1 VH
VL: B1 VL with S52M, R53T
notes: Fab; Expressed in E. coli with CH1 (plasmid A, His6 and Flag tags) and lambda CL (plasmid E); also called G100K/G104T G24L/S28R/G35V & V91L/S96P S52M
ELISA signal [2]: 0.59
ELISA signal [3]: 0.8
ELISA signal [4]: 1.01
ELISA signal [5]: 0.41

B4: Fab VH5-51_IGHD5-18*01>3_IGHJ4*01 G100K & V3-4_IGLJ1*01 (wildtype) (Fab, V domains shown)
VH: B1 VH with T24G, R28S, V35G, T104G
VL: B1 VL with R53T, L91V, P96S
notes: Fab; Expressed in E. coli with CH1 (plasmid A, His6 and Flag tags) and lambda CL (plasmid E); also called G100K & Wildtype
ELISA signal [2]: 0.18
ELISA signal [3]: 0.19
ELISA signal [4]: 0.2
ELISA signal [5]: 0.19

B5: Fab VH5-51_IGHD5-18*01>3_IGHJ4*01 & V3-4_IGLJ1*01 (parental, wildtype) (Fab, V domains shown)
VH: B1 VH with T24G, R28S, V35G, K100G, T104G
VL: B1 VL with R53T, L91V, P96S
notes: Fab; Expressed in E. coli with CH1 (plasmid A, His6 and Flag tags) and lambda CL (plasmid E); also called Wildtype & Wildtype; parent Hit Fab
ELISA signal [2]: 0.18
ELISA signal [3]: 0.16
ELISA signal [4]: 0.17
ELISA signal [5]: 0.17

B6: Fab VH5-51_IGHD5-18*01>3_IGHJ4*01 G100K/G104T G24L/S28R/G35V (KT LRV) & V3-4_IGLJ1*01 V91L/S96P S52Q (Fab, V domains shown)
VH: B1 VH
VL: B1 VL with S52Q, R53T
notes: Fab; Expressed in E. coli with CH1 (plasmid A, His6 and Flag tags) and lambda CL (plasmid E); also called G100K/G104T G24L/S28R/G35V & V91L/S96P S52Q
ELISA signal [2]: 0.67
ELISA signal [3]: 0.81
ELISA signal [4]: 0.96
ELISA signal [5]: 0.47

B7: Fab VH5-51_IGHD5-18*01>3_IGHJ4*01 G100K/G104T G24A/S28R/G35V (KT ARV) & V3-4_IGLJ1*01 V91L/S96P S52H (Fab, V domains shown)
VH: B1 VH
VL: B1 VL with S52H, R53T
notes: Fab; Expressed in E. coli with CH1 (plasmid A, His6 and Flag tags) and lambda CL (plasmid E); Fab H:KT TRV & L:LP S52H; also called G100K/G104T G24A/S28R/G35V & V91L/S96P S52H
ELISA signal [2]: 0.73
ELISA signal [3]: 0.91
ELISA signal [4]: 1.09
ELISA signal [5]: 0.5

B8: Fab VH5-51_IGHD5-18*01>3_IGHJ4*01 G100K/G104T G24A/S28R/G35V (KT ARV) & V3-4_IGLJ1*01 V91L/S96P S52V (Fab, V domains shown)
VH: B1 VH
VL: B1 VL with S52V, R53T
notes: Fab; Expressed in E. coli with CH1 (plasmid A, His6 and Flag tags) and lambda CL (plasmid E); The light-chain S52 variants were made on the KT TRV heavy chain (T0104); also called G100K/G104T G24A/S28R/G35V & V91L/S96P S52V
ELISA signal [2]: 0.6
ELISA signal [3]: 0.74
ELISA signal [4]: 0.95
ELISA signal [5]: 0.43

B9: Fab VH5-51_IGHD5-18*01>3_IGHJ4*01 G100K/G104T G24A/S28R/G35V (KT ARV) & V3-4_IGLJ1*01 V91L/S96P S52P (Fab, V domains shown)
VH: B1 VH
VL: B1 VL with S52P, R53T
notes: Fab; Expressed in E. coli with CH1 (plasmid A, His6 and Flag tags) and lambda CL (plasmid E); also called G100K/G104T G24A/S28R/G35V & V91L/S96P S52P
ELISA signal [2]: 0.59
ELISA signal [3]: 0.79
ELISA signal [4]: 1
ELISA signal [5]: 0.43

B10: Fab VH5-51_IGHD5-18*01>3_IGHJ4*01 G100K/G104T G24T/S28R/G35V (H:KT TRV) & V3-4_IGLJ1*01 V91L/S96P T53W (Fab, V domains shown)
VH: B1 VH
VL: B1 VL with R53W
notes: Fab made in E. coli: VH in plasmid A (CH1, His6 and Flag tags), VL in plasmid E (lambda CL); also called H:KT TRV & L:LP T53W
ELISA Signal-blank (100 nM Fab) [1]: 0.06

B11: Fab VH5-51_IGHD5-18*01>3_IGHJ4*01 G100K/G104T G24L/S28R/G35V (KT LRV) & V3-4_IGLJ1*01 V91L/S96P S52F (Fab, V domains shown)
VH: B1 VH
VL: B1 VL with S52F, R53T
notes: Fab; Expressed in E. coli with CH1 (plasmid A, His6 and Flag tags) and lambda CL (plasmid E); also called G100K/G104T G24L/S28R/G35V & V91L/S96P S52F
ELISA signal [2]: 0.49
ELISA signal [3]: 0.69
ELISA signal [4]: 0.99
ELISA signal [5]: 0.42

B12: Fab VH5-51_IGHD5-18*01>3_IGHJ4*01 G100K/G104T G24A/S28R/G35V (KT ARV) & V3-4_IGLJ1*01 V91L/S96P S52I (Fab, V domains shown)
VH: B1 VH
VL: B1 VL with S52I, R53T
notes: Fab; Expressed in E. coli with CH1 (plasmid A, His6 and Flag tags) and lambda CL (plasmid E); also called G100K/G104T G24A/S28R/G35V & V91L/S96P S52I
ELISA signal [2]: 0.6
ELISA signal [3]: 0.82
ELISA signal [4]: 1.04
ELISA signal [5]: 0.4

B13: Fab VH5-51_IGHD5-18*01>3_IGHJ4*01 G100K/G104T (KT) & V3-4_IGLJ1*01 (wildtype) (Fab, V domains shown)
VH: B1 VH with T24G, R28S, V35G
VL: B1 VL with R53T, L91V, P96S
notes: Fab; Expressed in E. coli with CH1 (plasmid A, His6 and Flag tags) and lambda CL (plasmid E); also called H:KT & L:wt; KT double mutant
ELISA signal [2]: 0.16
ELISA signal [3]: 0.18
ELISA signal [4]: 0.18
ELISA signal [5]: 0.18

B14: Fab VH1-46_IGHD6-6*01_IGHJ1*01 S102A/S103P/S104F (APF) & L6_IGKJ1*01 S30L (Fab, V domains shown)
VH: QVQLVQSGAEVKKPGASVKVSCKASGYTFTSYYMHWVRQAPGQGLEWMGIINPSGGSTSYAQKFQGRVTMTRDTSTSTVYMELSSLRSEDTAVYYCAREEYAPFSAEYFQHWGQGTLVTVSS
VL: EIVLTQSPATLSLSPGERATLSCRASQSVLSYLAWYQQKPGQAPRLLIYDASNRATGIPARFSGSGSGTDFTLTISSLEPEDFAVYYCQQRSNWPPWTFGQGTKVEIKR
notes: Tested as a Fab; Expressed in E. coli from Plasmid A (CH1 with His6 and Flag tags) and Plasmid C (kappa CL); also called APF & S30L
ECL signal [6]: 1630
Signal/Blank [6]: 6.9

B15: Fab VH1-46_IGHD6-6*01_IGHJ1*01 S102A/S103P/S104F/H111F (APFF) & L6_IGKJ1*01 S28K (Fab, V domains shown)
VH: B14 VH with H111F
VL: B14 VL with S28K, L30S
notes: Tested as a Fab; Expressed in E. coli from Plasmid A (CH1 with His6 and Flag tags) and Plasmid C (kappa CL); also called APFF & S28K
ECL signal [6]: 124000
Signal/Blank [6]: 314

B16: Fab VH1-46_IGHD6-6*01_IGHJ1*01 S102A/S103P/S104F (APF) & L6_IGKJ1*01 S30R (Fab, V domains shown)
VH: B14 VH
VL: B14 VL with L30R
notes: Tested as a Fab; Expressed in E. coli from Plasmid A (CH1 with His6 and Flag tags) and Plasmid C (kappa CL); also called APF & S30R
ECL signal [6]: 745
Signal/Blank [6]: 7.8

B17: Fab VH1-46_IGHD6-6*01_IGHJ1*01 S102A/S103P/S104F/H111F (APFF) & L6_IGKJ1*01 S28V (Fab, V domains shown)
VH: B14 VH with H111F
VL: B14 VL with S28V, L30S
notes: Tested as a Fab; Expressed in E. coli from Plasmid A (CH1 with His6 and Flag tags) and Plasmid C (kappa CL); also called APFF & S28V
ECL signal [6]: 83100
Signal/Blank [6]: 351

B18: Fab VH1-46_IGHD6-6*01_IGHJ1*01 S102A/S103P/S104F/H111F (APFF) & L6_IGKJ1*01 S28G (Fab, V domains shown)
VH: B14 VH with H111F
VL: B14 VL with S28G, L30S
notes: Tested as a Fab; Expressed in E. coli from Plasmid A (CH1 with His6 and Flag tags) and Plasmid C (kappa CL); also called APFF & S28G
ECL signal [6]: 183000
Signal/Blank [6]: 533

B19: Fab VH1-46_IGHD6-6*01_IGHJ1*01 S102A/S103P/S104F (APF) & L6_IGKJ1*01 S30T (Fab, V domains shown)
VH: B14 VH
VL: B14 VL with L30T
notes: Tested as a Fab; Expressed in E. coli from Plasmid A (CH1 with His6 and Flag tags) and Plasmid C (kappa CL); also called APF & S30T
ECL signal [6]: 1020
Signal/Blank [6]: 4.9

B20: Fab VH1-46_IGHD6-6*01_IGHJ1*01 S102A/S103P/S104F (APF) & L6_IGKJ1*01 Y32S (Fab, V domains shown)
VH: B14 VH
VL: B14 VL with L30S, Y32S
notes: Tested as a Fab; Expressed in E. coli from Plasmid A (CH1 with His6 and Flag tags) and Plasmid C (kappa CL); also called APF & Y32S
ECL signal [6]: 1030
Signal/Blank [6]: 4.9

B21: Fab VH1-46_IGHD6-6*01_IGHJ1*01 S102A/S103P/S104F/H111F (APFF) & L6_IGKJ1*01 S28F (Fab, V domains shown)
VH: B14 VH with H111F
VL: B14 VL with S28F, L30S
notes: Tested as a Fab; Expressed in E. coli from Plasmid A (CH1 with His6 and Flag tags) and Plasmid C (kappa CL); also called APFF & S28F
ECL signal [6]: 134000
Signal/Blank [6]: 537

B22: Fab VH1-46_IGHD6-6*01_IGHJ1*01 S102A/S103P/S104F (APF) & L6_IGKJ1*01 S30W (Fab, V domains shown)
VH: B14 VH
VL: B14 VL with L30W
notes: Tested as a Fab; Expressed in E. coli from Plasmid A (CH1 with His6 and Flag tags) and Plasmid C (kappa CL); also called APF & S30W
ECL signal [6]: 791
Signal/Blank [6]: 4.3
